Results on one protein are retold here after patent US20080171059.

Series [1] deals with Aga2p-N9V fusion surface-displayed on yeast, unmodified (G4S)3 linker (construct pCT-N9V, as in strain EBYN9V).
For series [2], the target named is New York Esophageal 1 antigen (NY-ESO-1), P78358.
New York Esophageal 1 antigen (NY-ESO-1), P78358, sequence (P78358 whole entry): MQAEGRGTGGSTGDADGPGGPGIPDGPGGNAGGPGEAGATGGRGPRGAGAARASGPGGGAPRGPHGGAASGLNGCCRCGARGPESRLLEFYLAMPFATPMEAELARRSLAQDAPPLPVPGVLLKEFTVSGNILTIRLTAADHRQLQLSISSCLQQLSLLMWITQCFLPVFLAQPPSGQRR

B1: recombinant human Cathepsin S (protein)
chain: LPDSVDWREKGCVTEVKYQGSCGACWAFSAVGALEAQLKLKTGKLVSLSAQNLVDCSTEKYGNKGCNGGFMTTAFQYIIDNKGIDSDASYPYKAMDQKCQYDSKYRAATCSKYTELPYGREDVLKEAVANKGPVSVGVDARHPSFFLYRSGVYYEPSCTQNVNHGVLVVGYGDLNGKEYWLVKNSWGHNFGEEGYIRMARNKGNHCGIASFPSYPEI
In turn, B1 registered a CatS cleavage rank order in series [1] of 4 rank. For the same protein, the “cleavage by Cathepsin S” value in series [2] is recorded as “the N-terminus of NY-ESO-1 (MQ|AE . . . ) ... are cleaved rapidly by Cathepsin S (at the positions indicated by the vertical bars)”.
